# Reference: article PMC9482650, “Quantitative fragmentomics allow affinity mapping of interactomes” (Nature Communications, 2022)
# T1: LRRC7, Q96NW7
# T1 sequence (Q96NW7 1440-1537, limits assumed, looked up): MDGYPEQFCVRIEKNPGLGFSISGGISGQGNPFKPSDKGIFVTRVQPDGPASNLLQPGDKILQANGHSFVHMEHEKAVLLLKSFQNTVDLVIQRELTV
# T2: RHPN1, Q8TCX5
# T2 sequence (Q8TCX5 508-602, limits assumed, looked up): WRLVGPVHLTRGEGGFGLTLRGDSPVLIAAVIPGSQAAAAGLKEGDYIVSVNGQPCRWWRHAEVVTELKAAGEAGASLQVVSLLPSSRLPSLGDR
# T3: ARHGEF11, O15085
# T3 sequence (O15085 42-136, limits assumed, looked up): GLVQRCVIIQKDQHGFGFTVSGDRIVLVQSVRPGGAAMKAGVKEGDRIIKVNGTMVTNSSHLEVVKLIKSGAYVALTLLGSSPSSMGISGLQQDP
# T4: GRIP1_3, Q9Y3R0
# T4 sequence (Q9Y3R0 247-346, limits assumed, looked up): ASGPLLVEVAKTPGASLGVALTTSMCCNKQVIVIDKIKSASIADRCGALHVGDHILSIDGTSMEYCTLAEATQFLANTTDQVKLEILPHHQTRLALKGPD
# T5: HTRA3, P83110
# T5 sequence (P83110 354-453, limits assumed, looked up): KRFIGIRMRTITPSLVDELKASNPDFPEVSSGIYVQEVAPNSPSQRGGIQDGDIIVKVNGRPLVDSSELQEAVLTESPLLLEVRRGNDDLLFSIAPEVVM
# T6: LNX2_3, Q8N448
# T6 sequence (Q8N448 463-564, limits assumed, looked up): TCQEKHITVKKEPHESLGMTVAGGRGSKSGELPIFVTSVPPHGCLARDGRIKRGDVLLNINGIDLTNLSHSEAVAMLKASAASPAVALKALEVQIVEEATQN
# T7: MPDZ_12, O75970
# T7 sequence (O75970 1857-1958, limits assumed, looked up): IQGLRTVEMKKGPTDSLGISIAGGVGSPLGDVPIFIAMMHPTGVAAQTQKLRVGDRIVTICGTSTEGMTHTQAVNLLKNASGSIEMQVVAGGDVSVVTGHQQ
# T8: CARD11, Q9BXL7
# T8 sequence (Q9BXL7 662-765, limits assumed, looked up): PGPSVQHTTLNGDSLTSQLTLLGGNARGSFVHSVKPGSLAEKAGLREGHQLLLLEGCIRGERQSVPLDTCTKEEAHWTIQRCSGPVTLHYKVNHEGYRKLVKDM
# T9: GRIP1_7, Q9Y3R0
# T9 sequence (Q9Y3R0 999-1096, limits assumed, looked up): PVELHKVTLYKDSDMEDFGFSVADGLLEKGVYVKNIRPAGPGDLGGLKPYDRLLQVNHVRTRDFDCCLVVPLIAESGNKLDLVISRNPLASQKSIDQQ
# T10: DVL3, Q92997
# T10 sequence (Q92997 244-331, limits assumed, looked up): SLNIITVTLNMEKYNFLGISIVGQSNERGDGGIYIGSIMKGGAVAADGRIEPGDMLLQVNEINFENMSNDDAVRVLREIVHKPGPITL
# Target: T1, LRRC7, Q96NW7
# Test: holdup assay
# Parameters: key: below the threshold = too weak to quantify, mostly under pKd 3.1 to 4
# Details: plain residues with an end cap or a label only (N-terminal biotin on a linker: ado-ado)
row,Binder,pKd
1,"SSGSTSSSRI [ADGRG1, Q9Y653]",below the threshold
2,"PKLMGVETVV [DUSP10, Q9Y6W6]",3.83

# Target: DLG5_1, Q8TDM6
# Sequence (Q8TDM6 617-713): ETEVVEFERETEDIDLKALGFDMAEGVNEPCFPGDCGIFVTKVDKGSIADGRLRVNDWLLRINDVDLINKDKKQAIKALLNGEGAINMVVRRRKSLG
# Test: holdup assay
# Parameters: key: below the threshold = too weak to quantify, mostly under pKd 3.1 to 4
# Details: plain residues with an end cap or a label only (N-terminal biotin on a linker: ado-ado)
row,Binder,pKd
1,"SSGSTSSSRI [ADGRG1, Q9Y653]",below the threshold
2,"PKLMGVETVV [DUSP10, Q9Y6W6]",below the threshold

# Target: T2, RHPN1, Q8TCX5
# Test: holdup assay
# Parameters: key: below the threshold = too weak to quantify, mostly under pKd 3.1 to 4
# Details: plain residues with an end cap or a label only (N-terminal biotin on a linker: ado-ado)
row,Binder,pKd
1,"SSGSTSSSRI [ADGRG1, Q9Y653]",3.93
2,"PKLMGVETVV [DUSP10, Q9Y6W6]",4.42

# Target: SCRIB_1, Q14160
# Sequence (Q14160 718-814): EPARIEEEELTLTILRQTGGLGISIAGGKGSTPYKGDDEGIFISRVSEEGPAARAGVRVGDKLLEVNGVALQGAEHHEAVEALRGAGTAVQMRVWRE
# Test: holdup assay
# Parameters: key: below the threshold = too weak to quantify, mostly under pKd 3.1 to 4
# Details: plain residues with an end cap or a label only (N-terminal biotin on a linker: ado-ado)
row,Binder,pKd
1,"SSGSTSSSRI [ADGRG1, Q9Y653]",below the threshold
2,"PKLMGVETVV [DUSP10, Q9Y6W6]",4.28

# Target: Inadl_10, Q8NI35
# Sequence (Q8NI35 1673-1763): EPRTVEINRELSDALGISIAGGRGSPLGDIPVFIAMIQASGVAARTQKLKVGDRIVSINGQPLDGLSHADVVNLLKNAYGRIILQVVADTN
# Test: holdup assay
# Parameters: key: below the threshold = too weak to quantify, mostly under pKd 3.1 to 4
# Details: plain residues with an end cap or a label only (N-terminal biotin on a linker: ado-ado)
row,Binder,pKd
1,"SSGSTSSSRI [ADGRG1, Q9Y653]",below the threshold
2,"PKLMGVETVV [DUSP10, Q9Y6W6]",below the threshold

# Target: T3, ARHGEF11, O15085
# Test: holdup assay
# Parameters: key: below the threshold = too weak to quantify, mostly under pKd 3.1 to 4
# Details: plain residues with an end cap or a label only (N-terminal biotin on a linker: ado-ado)
row,Binder,pKd
1,"SSGSTSSSRI [ADGRG1, Q9Y653]",3.93
2,"PKLMGVETVV [DUSP10, Q9Y6W6]",4

# Target: T4, GRIP1_3, Q9Y3R0
# Test: holdup assay
# Parameters: key: below the threshold = too weak to quantify, mostly under pKd 3.1 to 4
# Details: plain residues with an end cap or a label only (N-terminal biotin on a linker: ado-ado)
row,Binder,pKd
1,"SSGSTSSSRI [ADGRG1, Q9Y653]",below the threshold
2,"PKLMGVETVV [DUSP10, Q9Y6W6]",below the threshold

# Target: T5, HTRA3, P83110
# Test: holdup assay
# Parameters: key: below the threshold = too weak to quantify, mostly under pKd 3.1 to 4
# Details: plain residues with an end cap or a label only (N-terminal biotin on a linker: ado-ado)
row,Binder,pKd
1,"SSGSTSSSRI [ADGRG1, Q9Y653]",below the threshold
2,"PKLMGVETVV [DUSP10, Q9Y6W6]",below the threshold

# Target: T6, LNX2_3, Q8N448
# Test: holdup assay
# Parameters: key: below the threshold = too weak to quantify, mostly under pKd 3.1 to 4
# Details: plain residues with an end cap or a label only (N-terminal biotin on a linker: ado-ado)
row,Binder,pKd
1,"SSGSTSSSRI [ADGRG1, Q9Y653]",below the threshold
2,"PKLMGVETVV [DUSP10, Q9Y6W6]",below the threshold

# Target: T7, MPDZ_12, O75970
# Test: holdup assay
# Parameters: key: below the threshold = too weak to quantify, mostly under pKd 3.1 to 4
# Details: plain residues with an end cap or a label only (N-terminal biotin on a linker: ado-ado)
row,Binder,pKd
1,"SSGSTSSSRI [ADGRG1, Q9Y653]",below the threshold
2,"PKLMGVETVV [DUSP10, Q9Y6W6]",below the threshold

# Target: TJP1_3, Q07157
# Sequence (Q07157 416-512): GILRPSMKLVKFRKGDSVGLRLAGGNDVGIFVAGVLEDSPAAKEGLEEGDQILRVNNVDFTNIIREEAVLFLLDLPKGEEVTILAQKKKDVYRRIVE
# Test: holdup assay
# Parameters: key: below the threshold = too weak to quantify, mostly under pKd 3.1 to 4
# Details: plain residues with an end cap or a label only (N-terminal biotin on a linker: ado-ado)
row,Binder,pKd
1,"SSGSTSSSRI [ADGRG1, Q9Y653]",below the threshold
2,"PKLMGVETVV [DUSP10, Q9Y6W6]",below the threshold

# Target: LNX1_1, Q8TBB1
# Sequence (Q8TBB1 261-371): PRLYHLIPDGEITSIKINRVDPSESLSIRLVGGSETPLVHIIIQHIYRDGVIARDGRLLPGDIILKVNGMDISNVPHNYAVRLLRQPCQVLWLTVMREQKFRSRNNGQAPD
# Test: holdup assay
# Parameters: key: below the threshold = too weak to quantify, mostly under pKd 3.1 to 4
# Details: plain residues with an end cap or a label only (N-terminal biotin on a linker: ado-ado)
row,Binder,pKd
1,"SSGSTSSSRI [ADGRG1, Q9Y653]",3.66
2,"PKLMGVETVV [DUSP10, Q9Y6W6]",4.06

# Target: T8, CARD11, Q9BXL7
# Test: holdup assay
# Parameters: key: below the threshold = too weak to quantify, mostly under pKd 3.1 to 4
# Details: plain residues with an end cap or a label only (N-terminal biotin on a linker: ado-ado)
row,Binder,pKd
1,"SSGSTSSSRI [ADGRG1, Q9Y653]",below the threshold
2,"PKLMGVETVV [DUSP10, Q9Y6W6]",below the threshold

# Target: GRASP, Q7Z6J2
# Sequence (Q7Z6J2 96-193): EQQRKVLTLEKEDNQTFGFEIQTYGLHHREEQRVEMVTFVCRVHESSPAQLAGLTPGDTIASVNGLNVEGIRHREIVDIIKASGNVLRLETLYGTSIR
# Test: holdup assay
# Parameters: key: below the threshold = too weak to quantify, mostly under pKd 3.1 to 4
# Details: plain residues with an end cap or a label only (N-terminal biotin on a linker: ado-ado)
row,Binder,pKd
1,"SSGSTSSSRI [ADGRG1, Q9Y653]",below the threshold
2,"PKLMGVETVV [DUSP10, Q9Y6W6]",3.78

# Target: T9, GRIP1_7, Q9Y3R0
# Test: holdup assay
# Parameters: key: below the threshold = too weak to quantify, mostly under pKd 3.1 to 4
# Details: plain residues with an end cap or a label only (N-terminal biotin on a linker: ado-ado)
row,Binder,pKd
1,"SSGSTSSSRI [ADGRG1, Q9Y653]",below the threshold
2,"PKLMGVETVV [DUSP10, Q9Y6W6]",below the threshold

# Target: NHERF4_1, Q86UT5-2
# Sequence (Q86UT5 other isoform, or with tags, fused parts or gaps): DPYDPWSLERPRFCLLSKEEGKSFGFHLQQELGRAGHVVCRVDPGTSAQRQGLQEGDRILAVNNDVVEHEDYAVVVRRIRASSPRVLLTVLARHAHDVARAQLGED
# Test: holdup assay
# Parameters: key: below the threshold = too weak to quantify, mostly under pKd 3.1 to 4
# Details: plain residues with an end cap or a label only (N-terminal biotin on a linker: ado-ado)
row,Binder,pKd
1,"SSGSTSSSRI [ADGRG1, Q9Y653]",below the threshold
2,"PKLMGVETVV [DUSP10, Q9Y6W6]",below the threshold

# Target: GRIP2_5, Q9C0E4
# Sequence (Q9C0E4 544-642): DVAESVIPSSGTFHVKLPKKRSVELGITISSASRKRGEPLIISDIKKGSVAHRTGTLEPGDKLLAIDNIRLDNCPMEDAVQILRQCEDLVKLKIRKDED
# Test: holdup assay
# Parameters: key: below the threshold = too weak to quantify, mostly under pKd 3.1 to 4
# Details: plain residues with an end cap or a label only (N-terminal biotin on a linker: ado-ado)
row,Binder,pKd
1,"SSGSTSSSRI [ADGRG1, Q9Y653]",below the threshold
2,"PKLMGVETVV [DUSP10, Q9Y6W6]",below the threshold

# Target: IL16_1, Q14005
# Sequence (Q14005 210-306): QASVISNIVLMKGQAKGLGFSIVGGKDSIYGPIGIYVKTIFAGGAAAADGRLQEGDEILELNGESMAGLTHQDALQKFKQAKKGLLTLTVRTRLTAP
# Test: holdup assay
# Parameters: key: below the threshold = too weak to quantify, mostly under pKd 3.1 to 4
# Details: plain residues with an end cap or a label only (N-terminal biotin on a linker: ado-ado)
row,Binder,pKd
1,"SSGSTSSSRI [ADGRG1, Q9Y653]",below the threshold
2,"PKLMGVETVV [DUSP10, Q9Y6W6]",4.38

# Target: GIPC2, Q8TF65
# Sequence (Q8TF65 112-203): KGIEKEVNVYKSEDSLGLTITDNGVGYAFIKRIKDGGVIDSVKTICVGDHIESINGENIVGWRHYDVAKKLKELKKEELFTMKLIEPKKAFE
# Test: holdup assay
# Parameters: key: below the threshold = too weak to quantify, mostly under pKd 3.1 to 4
# Details: plain residues with an end cap or a label only (N-terminal biotin on a linker: ado-ado)
row,Binder,pKd
1,"SSGSTSSSRI [ADGRG1, Q9Y653]",below the threshold
2,"PKLMGVETVV [DUSP10, Q9Y6W6]",below the threshold

# Target: LDB3, O75112
# Sequence (O75112 1-94): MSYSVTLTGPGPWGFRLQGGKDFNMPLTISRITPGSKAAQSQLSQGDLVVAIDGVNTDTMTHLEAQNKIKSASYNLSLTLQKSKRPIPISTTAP
# Test: holdup assay
# Parameters: key: below the threshold = too weak to quantify, mostly under pKd 3.1 to 4
# Details: plain residues with an end cap or a label only (N-terminal biotin on a linker: ado-ado)
row,Binder,pKd
1,"SSGSTSSSRI [ADGRG1, Q9Y653]",below the threshold
2,"PKLMGVETVV [DUSP10, Q9Y6W6]",below the threshold

# Target: NHERF4_4, Q86UT5
# Sequence (Q86UT5 464-550): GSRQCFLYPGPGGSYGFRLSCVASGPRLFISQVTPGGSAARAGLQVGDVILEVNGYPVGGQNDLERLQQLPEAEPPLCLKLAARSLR
# Test: holdup assay
# Parameters: key: below the threshold = too weak to quantify, mostly under pKd 3.1 to 4
# Details: plain residues with an end cap or a label only (N-terminal biotin on a linker: ado-ado)
row,Binder,pKd
1,"SSGSTSSSRI [ADGRG1, Q9Y653]",below the threshold
2,"PKLMGVETVV [DUSP10, Q9Y6W6]",below the threshold

# Target: T10, DVL3, Q92997
# Test: holdup assay
# Parameters: key: below the threshold = too weak to quantify, mostly under pKd 3.1 to 4
# Details: plain residues with an end cap or a label only (N-terminal biotin on a linker: ado-ado)
row,Binder,pKd
1,"SSGSTSSSRI [ADGRG1, Q9Y653]",below the threshold
2,"PKLMGVETVV [DUSP10, Q9Y6W6]",below the threshold

# Target: PDZRN4_1, Q6ZMN7
# Sequence (Q6ZMN7 213-318): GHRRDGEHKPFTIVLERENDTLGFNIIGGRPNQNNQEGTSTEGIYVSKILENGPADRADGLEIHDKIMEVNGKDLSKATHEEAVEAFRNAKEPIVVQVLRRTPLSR
# Test: holdup assay
# Parameters: key: below the threshold = too weak to quantify, mostly under pKd 3.1 to 4
# Details: plain residues with an end cap or a label only (N-terminal biotin on a linker: ado-ado)
row,Binder,pKd
1,"SSGSTSSSRI [ADGRG1, Q9Y653]",below the threshold
2,"PKLMGVETVV [DUSP10, Q9Y6W6]",3.7

# Target: MAGI2_3, Q86UL8
# Sequence (Q86UL8 600-682): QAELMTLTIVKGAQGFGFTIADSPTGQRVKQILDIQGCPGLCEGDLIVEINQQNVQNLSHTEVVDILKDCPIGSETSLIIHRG
# Test: holdup assay
# Parameters: key: below the threshold = too weak to quantify, mostly under pKd 3.1 to 4
# Details: plain residues with an end cap or a label only (N-terminal biotin on a linker: ado-ado)
row,Binder,pKd
1,"SSGSTSSSRI [ADGRG1, Q9Y653]",below the threshold
2,"PKLMGVETVV [DUSP10, Q9Y6W6]",4.17

# Target: MAGI1_2, Q96QZ7
# Sequence (Q96QZ7 456-580): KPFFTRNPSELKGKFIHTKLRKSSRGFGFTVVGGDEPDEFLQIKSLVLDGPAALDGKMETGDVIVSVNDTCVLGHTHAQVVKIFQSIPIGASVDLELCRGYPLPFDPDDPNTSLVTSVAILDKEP
# Test: holdup assay
# Parameters: key: below the threshold = too weak to quantify, mostly under pKd 3.1 to 4
# Details: plain residues with an end cap or a label only (N-terminal biotin on a linker: ado-ado)
row,Binder,pKd
1,"SSGSTSSSRI [ADGRG1, Q9Y653]",below the threshold
2,"PKLMGVETVV [DUSP10, Q9Y6W6]",4.14

# Target: NHERF4_2, Q86UT5
# Sequence (Q86UT5 220-308): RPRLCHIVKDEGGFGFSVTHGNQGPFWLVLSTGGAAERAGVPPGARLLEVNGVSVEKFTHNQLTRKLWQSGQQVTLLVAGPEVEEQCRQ
# Test: holdup assay
# Parameters: key: below the threshold = too weak to quantify, mostly under pKd 3.1 to 4
# Details: plain residues with an end cap or a label only (N-terminal biotin on a linker: ado-ado)
row,Binder,pKd
1,"SSGSTSSSRI [ADGRG1, Q9Y653]",below the threshold
2,"PKLMGVETVV [DUSP10, Q9Y6W6]",below the threshold

# Target: LNX1_3, Q8TBB1
# Sequence (Q8TBB1 500-596): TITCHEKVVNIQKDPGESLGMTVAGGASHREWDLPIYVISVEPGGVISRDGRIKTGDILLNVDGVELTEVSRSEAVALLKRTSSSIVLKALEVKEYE
# Test: holdup assay
# Parameters: key: below the threshold = too weak to quantify, mostly under pKd 3.1 to 4
# Details: plain residues with an end cap or a label only (N-terminal biotin on a linker: ado-ado)
row,Binder,pKd
1,"SSGSTSSSRI [ADGRG1, Q9Y653]",below the threshold
2,"PKLMGVETVV [DUSP10, Q9Y6W6]",below the threshold

# Target: TJP1_2, Q07157
# Sequence (Q07157 181-274): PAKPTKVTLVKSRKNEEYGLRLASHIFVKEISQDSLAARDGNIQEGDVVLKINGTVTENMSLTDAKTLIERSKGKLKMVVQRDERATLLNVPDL
# Test: holdup assay
# Parameters: key: below the threshold = too weak to quantify, mostly under pKd 3.1 to 4
# Details: plain residues with an end cap or a label only (N-terminal biotin on a linker: ado-ado)
row,Binder,pKd
1,"SSGSTSSSRI [ADGRG1, Q9Y653]",below the threshold
2,"PKLMGVETVV [DUSP10, Q9Y6W6]",3.67
